# Substitutions are numbered along the chain they refer to.
# B1: CD70-57 (scFv)
# scFv: QVQLVESGGGVVQPGRSLRLSCAASGFTFSSYGMHWVRQAPGKGLEWVAVIWYDGSSEYYADSVKGRFTISRDNSKNTLYLQMNSLRAEDTAVYYCARDNSYNYYGMDVWGQGTTVTVSSGGGGSGGGGSGGGGSQSVLTQPPSVSGAPGQRVTISCTGSSSNIGAAYDVHWYQQFPGTAPKLLIYVNSHRPPGVPDRFSGSKSGTSASLAITGLQAEDEADYYCLSYDNSLSGSVFGGGTKLTVL
# B2: CD70-52 (scFv)
# scFv: QVQLQESGPGLVKPSETLSLTCTVSGGSVSTDGYYWSWIRQPPGKGLEWIGYIYYSGSTNYNPSLKSRVTISVDTSKNQFSLKLSSVTAADTAVYYCARGIGLGFEYWGQGTLVTVSSGGGGSGGGGSGGGGSSYVLTQLSSVSVAPGQTARITCGGNNIGSKSVHWYQQKPGQAPVLVVYDDSDRPSGIPERFSGSNSGNTATLTISRVEAGDEADYYCQVWDRSSDQDVVFGGGTKLTVL
# notes: As m32
# B3: CD70-51 (scFv)
# scFv: B2 scFv with S141T, Y218F
# notes: As m32
# B4: CD70-69 (scFv)
# scFv: B2 scFv with G46C, S85I, G235C
# notes: As m32
# B5: CD70-59 (scFv)
# scFv: QVQLQQWGAGLLKPSETLSLTCAVYDGSVSGFYWSWIRQPPGKGLEWIGEIDHSGSTNYNPSLKSRVTISVDTSKNQFSLKLSSVTAADSAVYYCARNGYSGYLFDYWGQGTLVTVSSGGGGSGGGGSGGGGSDIQMTQSPSSLSASVGDRVTITCRASQIISSYLNWYQQKPGKAPKVLIYGASSMQSGVPSRFSGSGYGTDFTLTISSLQPEDFATYYCQQSYSIPRTFGQGTKLEIK
# B6: CD70-63 (scFv)
# scFv: EVQLVESGGGLVKPGGSLRLSCAASGITFSTYTMNWVRQAPGKGLEWVSSISSSSGYIYYADSVKGRFTISRDNAKNSLYLQMNSLRAEDTAVYYCARGDYSNYLYFDLWGRGTLVTVSSGGGGSGGGGSGGGGSEIVLTQSPGTLSLSPGERATLSCRASQSFRSSYLAWYQQKPGQAPRLLIHGASSRATGIPDRFSGSGSGTDFTLTISRLEPEDFAVYYCQLYGSLPITFGQGTRLEIK
# B7: CD70-61 (scFv)
# scFv: EVQLLESGGGLVQPGGSLRLSCAASGFTFSSYAMSWVRQAPGKGLEWVSVISDSGGITDFADSVKGRFTISRDNSRNTLYLQMNSLRAEDTAVYFCARHDYSNYFFFDYWGQGTLVTVSSGGGGSGGGGSGGGGSDIQMTQSPSSLSASVGDRITITCRASQSISNYLNWYQQKPGKAPKLLISAASSLQSGVPSRFSGSGSGTDFTLTISSLQPEDFATYYCQQSYIIPPTFGQGTKVDIK
# notes: As m32
# B8: CD70-67 (scFv)
# scFv: B7 scFv with G44C, T69I, I154V, S163D, P175S, K180E, S184Y, I229S, Q235C, D240E
# notes: As m32
# B9: CD70-62 (scFv)
# scFv: EVQLVESGGGLVKPGGSLRLSCAASGFTFSSYSMNWVRQAPGKGLEWVSYISSSGGYIYYADSVKGRFTISRDNAKNSLYLQMNSLRAEDAAVYYCSRGDYSNYAYFDYWGQGTLVTVSSGGGGSGGGGSGGGGSDIQMTQSPSSLSASVGDRVTITCRASQGISNYLAWYQQKPGKVPKLLIYAASTLQSGVPSRFSGSGSGTDFTLTISSLQAEDVAVYYCQQYYSTPLTFGGGTKVEIK
# notes: As m32
# B10: CD70-73 (scFv)
# scFv: B9 scFv with G44C, G235C
# notes: As m32
# B11: CD70-58 (scFv)
# scFv: QVQLQESGPGLVKPSQTLSLTCTVSGGSISSSSYYWGWIRQPPGKGLEWIGSIYHSGGTYFNPSLKSRVTISVDTSKNQFSLKLSSVTAADTAVYYCARHYEILTGYYPDVFDIWGQGTMVTVSSGGGGSGGGGSGGGGSDIQMTQSPSSLSASVGDRVTITCRASQSISSYLNWYQQKPGKAPKLLIYAASNLQSGVSSRFSGSGSGTDFTLTISSLQPEDFATYYCQQSFSSPRTFGQGTKVEIK
# B12: CD70-56 (scFv)
# scFv: QVQLVESGGGVVQPGRSLRLSCAASGFTFSSYGMHWVRQAPGKGLEWVAVISYDGSNKYYADSVKGRFTISRDNSKNTLYLQMNSLRAEDTAVYYCARGRYYGSGSYNYGMDVWGQGTTVTVSSGGGGSGGGGSGGGGSDIQMTQSPSSLSASVGDRVTITCRASQSIFDYLNWYQQKPGKAPKLLIYAASSLQSGVPSRFSGSGFGTDFTLTISSLQPEDFATYYCQQSYSTPLTFGGGTKLEIK
# notes: As m32
# B13: CD70-71 (scFv)
# scFv: B12 scFv with G44C, G239C
# notes: As m32
# B14: CD70-48 (scFv)
# scFv: EVQLLESGGGLVQPGGSLRLSCAASGFTFSSYAMSWVRQAPGKGLEWVSVISDSGGITDFADSVKGRFTISRDNSRNTLYLQMNSLRAEDTAVYFCARHDYSNYFFFDYWGQGTLVTVSSGGGGSGGGGSGGGGSDIQMTQSPSSLSASVGDRVTITCRASQGISNYLAWYQQKPGKVPKLLIYAASILQSGVPSKFSGSGSGTDFTLTISSLQPEDFAIYYCQQYFAYPITFGQGTRLEIK
# notes: As m32
# B15: CD70-68 (scFv)
# scFv: B14 scFv with G44C, Q235C
# notes: As m32
# B16: CD70-64 (scFv)
# scFv: EVQLLESGGGLVQPGGSLRLSCAASGFTFSVYAMSWVRQAPGKCLEWVSTISDSGGSTFYADSVKGRFTISRDNSKNTLYLQMNRLRAEDTAVYYCARHDYSNYAYFDYWGQGTLVTVSSGGGGSGGGGSGGGGSEIVLTQSPGTLSLSPGERATLSCRASQSVRSSYLAWYQQKPGQAPRLLIYGASSRATGIPDRFSGSGSGTDFTLTISRLEPEDFAVYYCQQYGDLPFTFGCGTKVEIK
# notes: As m32
# Target: T1, human CD70 (human, UniProt P32970 1-193)
# T1 construct: also called hu CD70; CD27L
# T1 sequence: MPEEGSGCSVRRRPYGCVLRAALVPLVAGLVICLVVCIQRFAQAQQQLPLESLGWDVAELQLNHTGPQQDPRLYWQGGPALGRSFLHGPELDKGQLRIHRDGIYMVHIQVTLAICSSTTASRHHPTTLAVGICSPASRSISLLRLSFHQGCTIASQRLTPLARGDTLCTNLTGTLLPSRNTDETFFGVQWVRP
# Assay: FACS on CHO cells, periplasmic scFv
# Procedure: (§1) All antibodies were diluted in PBS/1.5% FCS. As negative control, cells were incubated with PBS/2% FCS instead of the periplasmic extract. The samples were measured by flow cytometry.
row,Binder,binding result
1,B1,binds
2,B2,binds
3,B3,binds
4,B4,binds
5,B5,binds
6,B6,binds
7,B7,binds
8,B8,binds
9,B9,binds
10,B10,binds
11,B11,binds
12,B12,binds
13,B13,binds
14,B14,binds
15,B15,binds
16,B16,binds

# Target: T2, full-length mouse CD70 with C-terminal V5 tag (mouse, UniProt O55237 1-195)
# T2 construct: On transfected CHO cells; also called murine CD70
# T2 sequence: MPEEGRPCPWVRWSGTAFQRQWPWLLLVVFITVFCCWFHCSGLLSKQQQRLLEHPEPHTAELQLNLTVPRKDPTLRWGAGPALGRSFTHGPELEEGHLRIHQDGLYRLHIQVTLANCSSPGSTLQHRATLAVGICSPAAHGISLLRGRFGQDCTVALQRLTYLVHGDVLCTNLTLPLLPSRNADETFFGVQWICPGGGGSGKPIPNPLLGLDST
# Assay: FACS on CHO cells, periplasmic scFv
# Procedure: as §1
row,Binder,binding result
1,B1,no binding
2,B2,no binding
3,B3,no binding
4,B4,no binding
5,B5,no binding
6,B6,no binding
7,B7,no binding
8,B8,no binding
9,B9,no binding
10,B10,no binding
11,B11,no binding
12,B12,no binding
13,B13,no binding
14,B14,no binding
15,B15,no binding
16,B16,no binding

# Target: T3, full length human CD70 with C-terminal V5 tag (human, UniProt P32970 1-193)
# T3 construct: On transfected CHO cells; also called huCD70-V5
# T3 sequence: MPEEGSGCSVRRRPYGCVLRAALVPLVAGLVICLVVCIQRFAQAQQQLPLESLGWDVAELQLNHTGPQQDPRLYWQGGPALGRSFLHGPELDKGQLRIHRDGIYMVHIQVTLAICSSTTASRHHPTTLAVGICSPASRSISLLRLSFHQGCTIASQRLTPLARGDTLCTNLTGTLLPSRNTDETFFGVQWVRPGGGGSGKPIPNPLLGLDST
# Assay: FACS on CHO cells, periplasmic scFv
# Procedure: as §1
row,Binder,binding result
1,B12,no binding
2,B13,no binding

# — patent US20170129961A1 (Amgen, published 2017)
